{"source": "IntAct's records for PubMed 22056988", "parents": {"B1": {"name": "Catenin beta-1 (Homo sapiens), P35222 (parent)", "chain": "MATQADLMELDMAMEPDRKAAVSHWQQQSYLDSGIHSGATTTAPSLSGKGNPEEEDVDTSQVLYEWEQGFSQSFTQEQVADIDGQYAMTRAQRVRAAMFPETLDEGMQIPSTQFDAAHPTNVQRLAEPSQMLKHAVVNLINYQDDAELATRAIPELTKLLNDEDQVVVNKAAVMVHQLSKKEASRHAIMRSPQMVSAIVRTMQNTNDVETARCTAGTLHNLSHHREGLLAIFKSGGIPALVKMLGSPVDSVLFYAITTLHNLLLHQEGAKMAVRLAGGLQKMVALLNKTNVKFLAITTDCLQILAYGNQESKLIILASGGPQALVNIMRTYTYEKLLWTTSRVLKVLSVCSSNKPAIVEAGGMQALGLHLTDPSQRLVQNCLWTLRNLSDAATKQEGMEGLLGTLVQLLGSDDINVVTCAAGILSNLTCNNYKNKMMVCQVGGIEALVRTVLRAGDREDITEPAICALRHLTSRHQEAEMAQNAVRLHYGLPVVVKLLHPPSHWPLIKATVGLIRNLALCPANHAPLREQGAIPRLVQLLVRAHQDTQRRTSMGGTQQQFVEGVRMEEIVEGCTGALHILARDVHNRIVIRGLNTIPLFVQLLYSPIENIQRVAAGVLCELAQDKEAAEAIEAEGATAPLTELLHSRNEGVATYAAAVLFRMSEDKPQDYKKRLSVELTSSLFRTEPMAWNETADLGLDIGAQGEPLGYRQDDPSYRSFHSGGYGQDALGMDPMMEHEMGGHHPGADYPVDGLPDLGHAQDLMDGLPPGDSNQLAWFDTDL"}}, "data": [{"variants_of": "B1", "conditions": "with src_human SRC", "values": [{"variant": "Y333F", "effect of a mutation on the interaction": "decreasing interaction"}]}]}
